The values below are quoted from earlier work in publication PMC2683804.

The target of data set [1] is amyloid-β 1-42 1-42 (Homo sapiens) (UniProt P05067).
The target in data set [2] is amyloid-β 1-40 1-40 (Homo sapiens) (UniProt P05067).

By Kd is commonly meant a measure of binding affinity in units of concentration. Take “human serum albumin (from UniProt P02768)”: the results for the Kd in data set [1] and in data set [2] were 10.5 µM and 9.25 µM, respectively.
